Results from patent US20180172683A1, “METHODS FOR ANALYZING THE INTERACTION BETWEEN A TARGET PROTEIN AND A LIGAND” (UNIVERSITY OF SOUTHERN CALIFORNIA, priority 2015, published 2018).
Ends that are not written are not given here.

B1: E1, mRNA-peptide fusion in the selection pool (HTSK) (peptide, not shown: a dimerising Fc or GST)
peptide: MIETITIYNYKKAADHFSMSM
modifications: not fully specified; also: C-terminus joined via puromycin to DNA linker and reverse-transcribed mRNA
B2: D1, mRNA-peptide fusion in the selection pool (HTSK) (peptide, not shown: a dimerising Fc or GST)
peptide: MIAISTIYNYKKAADHYAMTK
modifications: not fully specified; also: C-terminus joined via puromycin to DNA linker and reverse-transcribed mRNA
B3: D79, mRNA-peptide fusion in the doped selection pool (HTSK) (peptide, not shown: a dimerising Fc or GST)
peptide: MIDTNVILNYKKAADHFSITM
modifications: not fully specified; also: C-terminus joined via puromycin to DNA linker and reverse-transcribed mRNA

Biological target: B-cell lymphoma extra-large protein (Bcl-xL), first 209 amino acids with N-terminal avitag (UniProt Q07817)
Assay: HTSK: from on- and off-rates of the mRNA-peptide fusion

Chain of B-cell lymphoma extra-large protein (Bcl-xL), first 209 amino acids with N-terminal avitag (Q07817 other isoform, or with tags, fused parts or gaps): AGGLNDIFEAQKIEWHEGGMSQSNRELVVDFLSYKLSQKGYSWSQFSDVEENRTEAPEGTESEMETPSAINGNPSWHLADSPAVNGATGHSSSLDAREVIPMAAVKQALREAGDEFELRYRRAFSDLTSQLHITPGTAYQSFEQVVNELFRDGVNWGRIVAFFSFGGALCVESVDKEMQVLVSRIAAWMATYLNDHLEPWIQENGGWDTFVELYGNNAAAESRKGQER

Row | Binder | Kd [nM]
1 | B1 | 0.023
2 | B2 | 0.015
3 | B3 | 0.0024

Biological target: B-cell lymphoma extra-large protein (Bcl-xL), first 209 amino acids with N-terminal avitag (UniProt Q07817)
Assay: HTSK: mRNA-peptide fusion pool on Bcl-xL beads, next-generation sequencing

Row | Binder | koff [s⁻¹]
4 | B1 | 2.5e-06
5 | B2 | 1e-06
6 | B3 | 3.3e-07
